Results taken from patent US20090036382A1, “TGF-Beta Modulators and Use Thereof” (Universita' Degli Studi Di Padova, priority 2006, published 2009).
Entries after “also recorded” stand apart in the source; their conditions may differ.

Experiments:
Furin/SPC 1 = molecular target: T1, Furin/SPC 1 (Homo sapiens, UniProt P09958); assay: Western blot (anti-LAP) of pro TGF-β1 cleavage in HEK293T cells co-transfected with Furin/SPC 1; type: cell-based; details: HEK293T cell extracts, FIG. 5B
T1 construct: expressed in transfected cells; host or cells: HEK293T
T1 sequence (P09958 108-794): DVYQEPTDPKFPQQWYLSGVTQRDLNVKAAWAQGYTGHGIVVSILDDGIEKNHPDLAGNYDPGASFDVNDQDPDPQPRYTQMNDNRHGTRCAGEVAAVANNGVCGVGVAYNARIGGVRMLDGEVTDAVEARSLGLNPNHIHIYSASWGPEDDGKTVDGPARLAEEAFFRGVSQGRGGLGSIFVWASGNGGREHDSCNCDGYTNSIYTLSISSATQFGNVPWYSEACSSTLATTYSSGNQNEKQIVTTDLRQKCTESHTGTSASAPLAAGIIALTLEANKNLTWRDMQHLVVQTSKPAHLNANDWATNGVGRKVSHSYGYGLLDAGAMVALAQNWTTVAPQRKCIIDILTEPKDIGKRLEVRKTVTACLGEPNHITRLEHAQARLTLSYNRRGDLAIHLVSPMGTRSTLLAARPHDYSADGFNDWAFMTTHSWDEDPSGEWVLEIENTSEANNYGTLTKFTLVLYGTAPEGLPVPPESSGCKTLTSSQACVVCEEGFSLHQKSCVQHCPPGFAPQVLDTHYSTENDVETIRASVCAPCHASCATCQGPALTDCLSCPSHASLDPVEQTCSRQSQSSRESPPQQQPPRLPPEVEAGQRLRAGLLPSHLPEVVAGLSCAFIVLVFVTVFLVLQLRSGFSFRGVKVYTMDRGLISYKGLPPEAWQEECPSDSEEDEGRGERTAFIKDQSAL
Text: To further investigate the role of emilin-1 on TGF-β processing, HEK293T cells were transfected with plasmids encoding pro TGF-β1, Furin/SPC 1 and EMI-domain, as shown in the scheme above FIG. 5B. Cell extracts were loaded on SDS-PAGE and detected by Western-blot with anti-LAP antibody.

pro TGF-β = molecular target: T2, pro TGF-β (Homo sapiens, UniProt P01137); assay: Co-immunoprecipitation / Western blot of EMI domain or emilin1 with pro TGF-β in HEK293T cells; type: binding; details: HEK293T cell extracts or culture medium; anti-Flag / anti-LAP IP; FIG. 4A-4C
T2 construct: expressed in transfected cells; host or cells: HEK293T
T2 sequence (P01137 30-390): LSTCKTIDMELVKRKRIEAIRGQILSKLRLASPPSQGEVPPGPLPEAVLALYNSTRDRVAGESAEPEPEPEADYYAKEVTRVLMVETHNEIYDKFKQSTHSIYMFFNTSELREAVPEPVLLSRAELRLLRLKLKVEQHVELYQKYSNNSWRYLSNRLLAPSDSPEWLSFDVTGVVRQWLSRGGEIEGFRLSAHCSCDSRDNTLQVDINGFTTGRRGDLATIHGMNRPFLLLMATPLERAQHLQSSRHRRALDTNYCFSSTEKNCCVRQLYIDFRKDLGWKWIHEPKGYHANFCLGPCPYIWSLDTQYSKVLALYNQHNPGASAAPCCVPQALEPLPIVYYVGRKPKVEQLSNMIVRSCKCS
Text: • The construct for emilin 1 expression was engineered in pCS2 vector (Rupp R. A. et al., 1994, Genes Dev 8, 1311-1323) (for a physical map of the vector, see the site faculty.washington.edu/rtmoon/pcs2+.html) as described (Zanetti M. et al., 2004, Mol Cell Biol 24, 638-650); the vector used for proTGF-β expression in MEF and HEK293T cells is pCDNA3.1 (Invitrogen). Vectors containing the coding sequence for human pro TGF-β are described in Young and Murphy-Ullrich, 2004 (Young and Murphy-Ullrich, 2004, J Biol Chem 279, 38032-38039). […]

[1] = molecular target: T3, TGFBRII (type II TGF-β receptor) (Homo sapiens, UniProt P37173); assay: 125I TGF-β1 / TGFBRII cross-linking (DSS) and anti-HA immunoprecipitation in transfected HEK293T cells; type: binding; details: HEK293T transfected with TGFBRII-HA and Flag-EMI-domain-GPI; iodinated TGF-β1; FIG. 2A
T3 construct: expressed in transfected cells; host or cells: HEK293T
T3 sequence (P37173 23-567): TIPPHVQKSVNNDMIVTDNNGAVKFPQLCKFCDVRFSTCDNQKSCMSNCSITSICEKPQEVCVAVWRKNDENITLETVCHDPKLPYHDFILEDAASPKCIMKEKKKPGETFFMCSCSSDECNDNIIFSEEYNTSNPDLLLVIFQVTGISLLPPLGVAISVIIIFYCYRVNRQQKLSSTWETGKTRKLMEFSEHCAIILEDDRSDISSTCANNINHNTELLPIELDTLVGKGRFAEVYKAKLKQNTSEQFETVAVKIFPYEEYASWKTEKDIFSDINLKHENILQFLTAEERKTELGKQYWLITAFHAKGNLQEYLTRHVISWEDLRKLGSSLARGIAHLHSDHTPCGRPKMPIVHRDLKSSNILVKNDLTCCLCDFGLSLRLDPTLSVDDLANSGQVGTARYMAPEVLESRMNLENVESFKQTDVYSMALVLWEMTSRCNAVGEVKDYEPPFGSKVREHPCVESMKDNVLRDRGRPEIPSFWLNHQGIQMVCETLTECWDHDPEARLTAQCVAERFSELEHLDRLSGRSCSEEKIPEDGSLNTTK
Description: Experiments were performed according to standard methods (Massague, 1987). Briefly, a solution of iodinated TGF-β1 (Amersham) was applied to HEK293T cells grown in 24 well plates and transfected with a plasmid carrying the sequence of TGFBRII (type II TGF-β receptor) fused to the HA epitope. After appropriate incubation and washing, the cell layer was exposed to a solution of DSS (disuccinimidyl suberate), a compound that favors formation of covalent cross-links between interacting molecules. The cell layer was extracted with immunoprecipitation buffer (RIPA-buffer) and subjected to the immunoprecipitation procedure with anti-HA antibody. The immunoprecipitate was solubilized with FSB (final sample buffer), separated by SDS-PAGE and radioactive complexes were detected by autoradiography. Molar excess of unlabeled TGF-β was used in parallel experiments. In other experiments, cells were simultaneously transfected with TGFBRII and with expression vectors driving expression of the emilin-1 EMI domain bound to GPI (glycosylphosphatidylinositol), a moiety which anchors the EMI domain to the cell membrane, that was tagged with the Flag epitope (Flag-EMI-domain-GPI).
Transfected cells, usually HEK293T, were incubated in Optimem (Invitrogen) for 24 hours prior to collection. […]

B1: EMI domain: cysteine-rich domain of emilin-1, residues 55-131, SEQ ID NO 2; in some experiments Flag-tagged and GPI-anchored (protein)
chain: RHRNWCAYVVTRTVSCVLEDGVETYVKYQPCAWGQPQCPQSIMYRRFLRPRYRVAYKTVTDMEWRCCQGYGGDDCAE
modifications: sometimes Flag tag and GPI anchor; homo sapiens
notes: in some experiments Flag-tagged and GPI-anchored
In the case of B1, the “Furin-induced proteolytic cleavage product of pro TGF-β1” value (Furin/SPC 1) is reported as “blocks the effect of Furin”, the “Interaction with pro TGF-β (co-immunoprecipitation)” value (pro TGF-β) is reported as “interacts specifically; also recorded: interacts only with the intact pro TGF-β molecule” and the “Competition with TGF-β for binding to TGFBRII (TGFBRII/TGF-β complex band)” value [1] is reported as “does non compete with TGF-β for binding to TGFBRII”.
